Source: PMC4544033, “Real-time analysis of epithelial-mesenchymal transition using fluorescent single-domain antibodies” (Scientific Reports, 2015)
Residue numbers refer to the chain shown, from its start.

Key:
purified vimentin-His6 = biological target: T1, purified vimentin-His6 (Homo sapiens, UniProt P08670); test: ELISA; solid-phase phage ELISA of 47 single clones after two cycles of biopanning against full-length vimentin; settings: one partner purified
T1 construct: vimentin, full length; Antigen of immunisation, biopanning and phage ELISA; details in the Supplementary methods; also called recombinant vimentin; full-length vimentin
T1 sequence (P08670 whole entry): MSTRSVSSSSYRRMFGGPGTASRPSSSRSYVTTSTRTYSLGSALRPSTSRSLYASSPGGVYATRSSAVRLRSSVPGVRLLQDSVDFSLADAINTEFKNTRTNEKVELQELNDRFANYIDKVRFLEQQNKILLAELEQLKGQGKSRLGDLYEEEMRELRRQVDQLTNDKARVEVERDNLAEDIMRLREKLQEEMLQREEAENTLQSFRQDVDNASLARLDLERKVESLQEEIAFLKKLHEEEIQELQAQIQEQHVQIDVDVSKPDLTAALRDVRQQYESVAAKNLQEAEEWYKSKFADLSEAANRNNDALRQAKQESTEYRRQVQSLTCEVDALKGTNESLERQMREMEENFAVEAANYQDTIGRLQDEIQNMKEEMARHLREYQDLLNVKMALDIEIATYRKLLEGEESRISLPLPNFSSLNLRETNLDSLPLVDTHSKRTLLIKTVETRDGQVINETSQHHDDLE

[1] = biological target: T2, endogenous vimentin (MDCK cells) (Canis lupus familiaris, UniProt A0A8C0N8E3); test: immunostaining of cells or tissue; fixed (4% PFA), permeabilised MDCK, HeLa and MDA-MB-231 cells; ATTO488-labeled nanobodies 10 ug/ml in 3% BSA in PBS, 16 h at 4 °C; compared or co-stained with an anti-vimentin IgG; settings: one partner purified
T2 construct: vimentin, endogenous in MDCK cells; source: endogenous, MDCK lysate; fixed MDCK cells
T2 sequence (A0A8C0N8E3 whole entry): as the sequence (P08670 whole entry) above, with A21G, S27T, V60A, N201S, E239D, E251D, V258M, T317N, S412A counted along it

GFP-labeled vimentin = biological target: T3, GFP-labeled vimentin (Homo sapiens, UniProt P08670); test: BLI; fiber optic sensors with immobilized VB3 and VB6; serial dilutions of the soluble protein fraction of HEK293T cells comprising GFP-VIM or GFP; settings: one partner purified
T3 construct: vimentin, full length; Expression constructs are described in the Supplementary methods; also called GFP-VIM; eGFP-Vimentin; source: HEK293T, transfected, in lysate (soluble protein fraction)
T3 sequence (P08670 whole entry): as the sequence (P08670 whole entry) above

[2] = biological target: T2, endogenous vimentin (MDCK cells); test: pull-down; nanobodies covalently coupled to agarose (NHS-Sepharose) beads incubated with soluble protein fractions of cell lines (HeLa, MDCK, A549 or HEK293T), 16 h at 4 °C; immunoblot with anti-vimentin IgG; settings: one partner purified
[3] = biological target: endogenous vimentin (human cell lines) (human (endogenous in HeLa, HEK293T, A549, MDA-MB-231)) (UniProt P08670)
endogenous vimentin (human cell lines) (human (endogenous in HeLa, HEK293T, A549, MDA-MB-231)), sequence (P08670 whole entry, the tested form may be a part): as the sequence (P08670 whole entry) above

[4] = biological target: T4, vimentin rod domain fused to GFP (Homo sapiens, UniProt P08670); test: pull-down; immobilized nanobodies incubated with lysates of HEK293T cells transfected with GFP fusions of vimentin or its domains; immunoblot with anti-GFP antibody; settings: one partner purified
T4 construct: vimentin central helical rod domain, aa 96-407; also called central helical rod domain (aa 96-407); source: HEK293T, transfected, in lysate
T4 sequence (P08670 96-407): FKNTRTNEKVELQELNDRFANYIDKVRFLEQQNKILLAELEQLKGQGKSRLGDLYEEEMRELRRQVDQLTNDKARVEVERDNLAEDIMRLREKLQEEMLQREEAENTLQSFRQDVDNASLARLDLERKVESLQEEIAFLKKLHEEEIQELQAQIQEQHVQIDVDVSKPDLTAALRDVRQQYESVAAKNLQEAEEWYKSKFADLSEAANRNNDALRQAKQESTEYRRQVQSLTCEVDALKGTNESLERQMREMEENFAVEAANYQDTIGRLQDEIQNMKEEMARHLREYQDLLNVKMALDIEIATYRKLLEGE

B1: VG4, phage-displayed clone (VHH)
VHH: QVQLVESGGGLVQPGGSLRLSCVASGFTFSDYWMYWVRQAPGKGLEWVSGISPGGTTTYADSVKGRFTTSRDNTRNTLYLQMNELKPEDTAVYYCAKDLNWVDSDDYWGRGTQVTVSS
notes: VH domain derived from a conventional IgG by its hallmark residues
- binding result (purified vimentin-His6): binds

B2: VC4, phage-displayed clone (VHH)
VHH: QVQLVESGGGLVQPGGSLRLSCLASGFSFGSYRMHWVRQAPGKGLEWVSGISSGGGTTYYADSVKGRFTISRDNAKNMLYLQMNNLQPEDTAVYYCLGGDWADWGQGTQVTVSS
notes: as for B1
- binding result (purified vimentin-His6): binds

B3: VB6 nanobody coupled to ATTO488 (VHH)
VHH: QVQLVESGGGLVQSGGSLTLTCAASGFTFSAASMRWVRQVPGKGLEWVATIDGTGANSYYSESAKGRFTISRDNARNTLRLQMNNLKPDDTAVYYCANFGRNYWGKGTQVTVSS
notes: also called VB6_(ATTO488); source: E. coli, purified, chemically coupled to ATTO488 NHS-ester
- binding result [1]: binds

B4: VB6 nanobody (VHH)
VHH: B3 VHH
notes: Single-domain antibody; Used immobilised on BLI sensors and covalently coupled to NHS-Sepharose; Construct details are in the Supplementary methods; also called Nb VB6; source: E. coli, recombinantly expressed and purified
- Kd (GFP-labeled vimentin): 37 nM
- koff (GFP-labeled vimentin): 0.0176 s⁻¹
- kon (GFP-labeled vimentin): 475000 M⁻¹ s⁻¹

B5: VB3 nanobody (VHH)
VHH: QVQLVESGGGSVQAGDSLRLSCAASGNTFSIKVMGWYRQAPGKQRELVAVSTNSGASVNYANSVKGRFTISIDSVKKTTYLQMNSLKPEDTAVYFCNAYDGRYEDYYGQGTQVTVSS
notes: By its hallmark residues derived from a heavy-chain-only antibody; Used immobilised on BLI sensors and covalently coupled to NHS-Sepharose; Construct and purification details are in the Supplementary methods; also called Nb VB3; source: E. coli, recombinantly expressed and purified
- binding result [2]: binds
- FRAP in HeLa cells: half time of fluorescence recovery of the chromobody [3]: 4.3 s
- FRAP in HeLa cells: total fluorescence recovery of the chromobody in the photobleached region [3]: 58.4%
- binding result [4]: binds

B6: VF6, phage-displayed clone (VHH)
VHH: B5 VHH with Q1D, S11L, Q13E, D16G, N27R, I31P, K32Y, K43N
notes: derived from a heavy-chain-only antibody
- binding result (purified vimentin-His6): binds

B7: VG1, phage-displayed clone (VHH)
VHH: B5 VHH with Q1D, S11L, D16G, R19K, A23K, N27S, F29Y, K32H, M34Y
notes: as for B6
- binding result (purified vimentin-His6): binds

B8: VH3, phage-displayed clone (VHH)
VHH: QVQLVESGGGLAQPGGSLRLSCAASGFTFSSYAMSWVRQAPGKGLEWVSGITSGGSSTYYASSVKGRFTISRDNTKNTLYLQMDNLKSDDTAVYYCAKAWGSASSSRGQGTQVTVSS
notes: as for B1
- binding result (purified vimentin-His6): binds

B9: VE3, phage-displayed clone (VHH)
VHH: QVQLVESGGGLVQPGGSLRLSCAASGSTFRIRTMGWYRQAPGKQRELVAVSTNSGGSVNYADSVKGRFTISIDSVKKTTDLQMNSLKPEDTAVYYCNAYDSDYLDYYGQGTQVTVSS
notes: as for B6
- binding result (purified vimentin-His6): binds
